In publication PMC10872949 one finds Ki data, which are given here for two substances.

What all share (experiment): enzyme inhibition assay
Test [1] has as its target Recombinant human cathepsin S (human) (UniProt P25774).
Test [2] concerns the target Recombinant human cathepsin L (human) (UniProt P07711).
Test [3] addresses Recombinant human cathepsin S (human) (UniProt P25774). This is another data set of the same source.

Read-outs that look alike come from different tables or passages of the source.

Sequence of UniProt P25774 (P25774 17-331): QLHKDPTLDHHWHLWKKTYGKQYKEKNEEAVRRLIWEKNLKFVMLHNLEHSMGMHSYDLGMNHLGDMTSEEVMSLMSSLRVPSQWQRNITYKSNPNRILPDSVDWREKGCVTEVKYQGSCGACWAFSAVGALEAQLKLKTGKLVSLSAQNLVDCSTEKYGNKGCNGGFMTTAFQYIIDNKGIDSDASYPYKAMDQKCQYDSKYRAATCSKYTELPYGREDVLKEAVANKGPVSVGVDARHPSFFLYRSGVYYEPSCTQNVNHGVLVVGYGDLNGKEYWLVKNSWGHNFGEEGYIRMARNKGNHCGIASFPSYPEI
Sequence of UniProt P07711 (P07711 18-333): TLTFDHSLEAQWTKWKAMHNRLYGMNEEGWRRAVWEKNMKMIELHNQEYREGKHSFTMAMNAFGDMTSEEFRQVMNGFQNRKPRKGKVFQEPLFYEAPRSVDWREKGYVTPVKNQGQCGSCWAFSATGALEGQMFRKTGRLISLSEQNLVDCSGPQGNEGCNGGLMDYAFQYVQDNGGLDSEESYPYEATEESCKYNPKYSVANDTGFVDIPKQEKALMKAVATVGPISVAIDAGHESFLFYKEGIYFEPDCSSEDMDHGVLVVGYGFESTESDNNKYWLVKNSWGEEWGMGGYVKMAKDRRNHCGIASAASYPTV

As for “Her-HC-CTSSpp IgG (from UniProt P25774 17-113) (antibody)”, the figures for the inhibition constant Ki in test [1] and in test [2] were 6.03 nM and 49.3 nM, respectively.

“Syn-LC-CTSSpp Fab (from UniProt P25774 17-113)”: the inhibition constant Ki in test [3] amounted to 2.21 nM; in test [1], 2.12 nM; in test [2], 24.5 nM.
